Laboratory results from IntAct's records for PubMed 23123112.

B1: Protein SLM4 (Saccharomyces cerevisiae), P38247 (parent)
chain: MVMLHSKNVKGFLENTLKPYDLHSVDFKTSSLQSSMIITATNGGILSYATSNNDVPKNSINEINSVNNLKMMSLLIKDKWSEDENDTEEQHSNSCYPVEIDSFKTKIYTYEMEDLHTCVAQIPNSDLLLLFIAEGSFPYGLLVIKIERAMRELTDLFGYKLG
partner: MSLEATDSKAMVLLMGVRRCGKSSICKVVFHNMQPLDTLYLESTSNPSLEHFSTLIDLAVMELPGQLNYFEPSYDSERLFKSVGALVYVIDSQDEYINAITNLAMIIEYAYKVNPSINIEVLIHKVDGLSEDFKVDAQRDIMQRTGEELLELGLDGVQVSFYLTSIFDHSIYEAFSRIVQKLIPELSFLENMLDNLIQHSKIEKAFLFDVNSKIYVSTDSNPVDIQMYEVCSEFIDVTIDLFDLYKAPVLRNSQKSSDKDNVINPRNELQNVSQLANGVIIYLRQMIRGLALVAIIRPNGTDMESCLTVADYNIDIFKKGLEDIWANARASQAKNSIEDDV
B2: Protein SLM4 (Saccharomyces cerevisiae), P38247 (parent)
chain: B1 chain
partner: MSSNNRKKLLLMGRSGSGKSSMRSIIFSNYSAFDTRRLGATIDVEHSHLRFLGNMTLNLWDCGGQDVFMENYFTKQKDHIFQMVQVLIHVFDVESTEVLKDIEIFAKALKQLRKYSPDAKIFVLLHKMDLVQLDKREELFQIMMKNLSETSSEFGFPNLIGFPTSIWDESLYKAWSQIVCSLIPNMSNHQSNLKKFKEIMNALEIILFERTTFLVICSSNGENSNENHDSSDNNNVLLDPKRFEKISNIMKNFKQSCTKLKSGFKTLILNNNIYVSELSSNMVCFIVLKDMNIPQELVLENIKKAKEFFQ

Variants of: B1
Details: with ragcd_yeast GTR2, P53290
For MVMLHSKNVKGFLENTLKPYDLHSVDFKTSSLQSSMIITATNGGILSYATSNNDVPKNSINEINSVAALAAMSLLIKDKWSEDENDTEEQHSNSCYPVEIDSFKTKIYTYEMEDLHTCVAQIPNSDLLLLFIAEGSFPYGLLVIKIERAMRELTDLFGYKLG, the “effect of a mutation on the interaction” value was “decreasing interaction strength”.

Variants of: B2
Details: with ragab_yeast GTR1, Q00582
With MVMLHSKNVKGFLENTLKPYDLHSVDFKTSSLQSSMIITATNGGILSYATSNNDVPKNSINEINSVAALAAMSLLIKDKWSEDENDTEEQHSNSCYPVEIDSFKTKIYTYEMEDLHTCVAQIPNSDLLLLFIAEGSFPYGLLVIKIERAMRELTDLFGYKLG the “effect of a mutation on the interaction” value was “decreasing interaction strength”.
